Measurements from PMC8716928 (2021).

B1: GvpJ wild type with CGFP fused at the C-terminus [Halobacterium salinarum] / GvpL with NGFP fused at the N-terminus [Halobacterium salinarum] (parent complex)
chain 1: MSDPKPTRSQGDLAEMLEMLLDKGVVVNADIAVSVGDTELLGIELRAAIASFETAAEYGLEFPTGTDMERVESAANISPDQSDPASETQSETESTNPLSDDSTPTASTSAEETK
chain 2: MTDHRPSPEEEQTTANEERTVSNGRYLYCVVDTTSSESATLSTTGVDDNPVYVVEADGVGAVVHDCETVYETEDLEQVKRWLVTHQQVVDAASDAFGTPLPMRFDTVLEGGDASIERWLEDHYEGFRDELASFAGVWEYRINLLWDSAPFEETIADRDDRLRELRQRQQQSGAGKKFLLEKQSDQRLQELKRERRTELADQLKEAITPVVNDLTEQDTNTPLQDEHSSIEKEQIVRFAVLADEDDETALGDRLDTIVEHEGVEIRFTGPWPPYTFAPDIGK
B2: GvpM wild type, entire protein, with CGFP fused at the C-terminus [Halobacterium salinarum] / GvpL with NGFP fused at the N-terminus [Halobacterium salinarum] (parent complex)
chain 1: MEPTKDETHAIVEFVDVLLRDGAVIQADVIVTVADIPLIGISLRAAIAGMTTMTEYGLFEEWDAAHRQQSEAFTTSPTADRRED
chain 2: B1 chain 2
B3: Fragment M1–25 of GvpM with NGFP fused at the C-terminus [Halobacterium salinarum] / GvpL with CGFP fused at the C-terminus [Halobacterium salinarum] (parent complex)
chain 1: MEPTKDETHAIVEFVDVLLRDGAVI
chain 2: B1 chain 2

Variants of: B1
Assay: split-GFP; Hfx. volcanii transformants; parent: 13; read off a plot

Variant	response
chain 1 E18A	~9.5
chain 1 E18D	~14
chain 1 E18R	~9.2
chain 1 E18Q	~9
chain 1 M16A	~9.3
chain 1 D22N	~14
chain 1 S51A	~17
chain 1 A47D	~22
chain 1 L17A	~14
chain 1 K23A	~14
chain 1 K23R	~14
chain 1 G24A	~7.2
chain 1 A29D	~25
chain 1 E15A	~9.5
chain 1 A50D	~17
chain 1 L21A	~9
chain 1 Y58E	~7.8
chain 1 E69A	~14
chain 1 L20I	~14
chain 1 I49A	~18
chain 1 V33A	~18
chain 1 V33D	~17
chain 1 M19E	~7

Variants of: B2
Assay: split-GFP; Hfx. volcanii transformants; parent: 7.8; read off a plot

Variant	response
chain 1 A45E	~18
chain 1 A46E	~5.6
chain 1 I47A	~7.1
chain 1 A23D	~9.7
chain 1 G22D	~9.5
chain 1 V15E	~6.4

Variants of: B3
Assay: split-GFP; Hfx. volcanii transformants; parent: 65; read off a plot

Variant	response
chain 1 V12Y	~58
chain 1 L19A	~81
chain 1 T4A	~70
chain 1 V15A	~100
chain 1 P3A	~84
chain 1 T8A	~110
chain 1 A10D	~58
chain 1 R20A	~54
chain 1 V24A	~74
chain 1 E13A	~61
chain 1 V17A	~74
chain 1 E2A	~67
chain 1 F14A	~57
chain 1 D21A	~67
chain 1 A23D	~94
chain 1 H9A	~62
chain 1 I11A	~84
chain 1 I11D	~110
chain 1 D16A	~46
chain 1 G22A	~86
chain 1 L18A	~75
chain 1 E7K	~80
